Non-standard residues stand in square brackets, D forms with d. No end group written: not given here. pY = N[C@@H](Cc1ccc(OP(=O)(O)O)cc1)C(=O)O
Biological target: GST-fused Grb2 SH2 domain (human, UniProt P62993 60-152)
Test: peptide or protein array
Details: both partners purified

Sequence of GST-fused Grb2 SH2 domain (P62993 60-152): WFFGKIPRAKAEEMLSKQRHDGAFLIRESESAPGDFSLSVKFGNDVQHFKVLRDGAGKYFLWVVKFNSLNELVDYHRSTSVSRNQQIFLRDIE

B1: Shc1 pTyr317 peptide (DPSpYVNVQNL) on the permutation array (peptide)
peptide: DPS[pY]VNVQNL
binding result: binds

— PMC6208348 (Nature Communications, 2018)
